According to the RNAGym collection of RNA variant scans (doi:10.1093/molbev/msab373):

B1: Azoarcus group I ribozyme (parent)
chain: GUGCCUUGCGCCGGGAAACCACGCAAGGGAUGGUGUCAAAUUCGGCGAAACCUAAGCGCCCGCCCGGGCGUAUGGCAACGCCGAGCCAAGCUUCGGCGCCUGCGCCGAUGAAGGUGUAGAGACUAGACGGCACCCACCUAAGGCAAACGCUAUGGUGAAGGCAUAGUCCAGGGAGUGGCGAAAGUCACACAAACCGG

Variants of: B1
Assay: reverse-splicing fitness (ratio to wild type); higher = more active; in vitro selection; Mg2+ level not given
In short: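 An in vitro group I ribozyme library with randomized positions was T7-transcribed and gel-purified. In triplicate, 10 pmol RNA in EPPS pH 7.5 was reacted with 50 pmoles of a 30-nt RNA substrate for 1 h at 37 °C across several added MgCl2 levels (1–48 mM), then stopped with EDTA. Products were reverse transcribed from a substrate-complementary primer, PCR-amplified and sequenced (HiSeq 4000). Fitness is a variant's read proportion after selection over that before, normalised to wild type.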

Variant	reverse-splicing fitness
GUGCCUUGCGCCGGGAAACCACGCAAGGGAUGGUGUCAAAUUCGGCGAAACCUAAGCGCCCGCCCGGGCGUAUGGCAACGCUGAGCCAAGCUUCGGCGCCUGCGCCGAUGCAGGUGUAGCGACUAGACGGCACCCACCUAAGGCGAACGUUAUGGUGAAGGCAUAGUCAAGGGAGUGGCGAAAGUCACACAAACCGG	0.00905
GUGCCUUGCGCCGGGAAACCACGCAAGGGAUGGUGUCAAAUUCGGCGAAACCUAAGCGCCCGCCCGGGCGUAUGGCAACGCUGAGCCAAGCUUCGGCGCCUGCGCCGAUGCAGGUGUAGCGACUAGACGGCACCCACCUAAGGCGAACGAUAUGGUGAAGGCAUAGUCUAGGGAGUGGCGAAAGUCACACAAACCGG	0.0103
GUGCCUUGCGCCGGGAAACCACGCAAGGGAUGGUGUCAAAUUCGGCGAAACCUAAGCGCCCGCCCGGGCGUAUGGCAACGCUGAGCCAAGCUUCGGCGCCUGCGCCGAUGCAGGUGUAGCGACUAGACGGCACCCACCUAAGGCGAACGAUAUGGUGAAGGCAUAGUCGAGGGAGCGGCGAAAGUCACACAAACCGG	0.0245
GUGCCUUGCGCCGGGAAACCACGCAAGGGAUGGUGUCAAAUUCGGCGAAACCUAAGCGCCCGCCCGGGCGUAUGGCAACGCUGAGCCAAGCUUCGGCGCCUGCGCCGAUGCAGGUGUAGCGACUAGACGGCACCCACCUAAGGCGAACGAUAUGGUGAAGGCAUAGUCGAGGGAGGGGCGAAAGUCACACAAACCGG	0.00635
GUGCCUUGCGCCGGGAAACCACGCAAGGGAUGGUGUCAAAUUCGGCGAAACCUAAGCGCCCGCCCGGGCGUAUGGCAACGCUGAGCCAAGCUUCGGCGCCUGCGCCGAUGCAGGUGUAGCGACUAGACGGCACCCACCUAAGGCGAACGUUAUGGUGAAGGCAUAGUCAAGGGAGCGGCGAAAGUCACACAAACCGG	0.014
GUGCCUUGCGCCGGGAAACCACGCAAGGGAUGGUGUCAAAUUCGGCGAAACCUAAGCGCCCGCCCGGGCGUAUGGCAACGCUGAGCCAAGCUUCGGCGCCUGCGCCGAUGCAGGUGUAGCGACUAGACGGCACCCACCUAAGGCGAACGUUAUGGUGAAGGCAUAGUCAAGGGAGAGGCGAAAGUCACACAAACCGG	0.0123
GUGCCUUGCGCCGGGAAACCACGCAAGGGAUGGUGUCAAAUUCGGCGAAACCUAAGCGCCCGCCCGGGCGUAUGGCAACGCUGAGCCAAGCUUCGGCGCCUGCGCCGAUGCAGGUGUAGCGACUAGACGGCACCCACCUAAGGCGAACGUUAUGGUGAAGGCAUAGUCAAGGGAGGGGCGAAAGUCACACAAACCGG	0.00622
GUGCCUUGCGCCGGGAAACCACGCAAGGGAUGGUGUCAAAUUCGGCGAAACCUAAGCGCCCGCCCGGGCGUAUGGCAACGCUGAGCCAAGCUUCGGCGCCUGCGCCGAUGCAGGUGUAGCGACUAGACGGCACCCACCUAAGGCGAACGAUAUGGUGAAGGCAUAGUCCAGGGAGAGGCGAAAGUCACACAAACCGG	0.00976
GUGCCUUGCGCCGGGAAACCACGCAAGGGAUGGUGUCAAAUUCGGCGAAACCUAAGCGCCCGCCCGGGCGUAUGGCAACGCUGAGCCAAGCUUCGGCGCCUGCGCCGAUGCAGGUGUAGCGACUAGACGGCACCCACCUAAGGCGAACGAUAUGGUGAAGGCAUAGUCCAGGGAGCGGCGAAAGUCACACAAACCGG	0.0208
GUGCCUUGCGCCGGGAAACCACGCAAGGGAUGGUGUCAAAUUCGGCGAAACCUAAGCGCCCGCCCGGGCGUAUGGCAACGCUGAGCCAAGCUUCGGCGCCUGCGCCGAUGCAGGUGUAGCGACUAGACGGCACCCACCUAAGGCGAACGAUAUGGUGAAGGCAUAGUCCAGGGAGGGGCGAAAGUCACACAAACCGG	0.00689
GUGCCUUGCGCCGGGAAACCACGCAAGGGAUGGUGUCAAAUUCGGCGAAACCUAAGCGCCCGCCCGGGCGUAUGGCAACGCUGAGCCAAGCUUCGGCGCCUGCGCCGAUGCAGGUGUAGCGACUAGACGGCACCCACCUAAGGCGAACGUUAUGGUGAAGGCAUAGUCCAGGGAGUGGCGAAAGUCACACAAACCGG	0.0229
GUGCCUUGCGCCGGGAAACCACGCAAGGGAUGGUGUCAAAUUCGGCGAAACCUAAGCGCCCGCCCGGGCGUAUGGCAACGCUGAGCCAAGCUUCGGCGCCUGCGCCGAUGCAGGUGUAGCGACUAGACGGCACCCACCUAAGGCGAACGGUAUGGUGAAGGCAUAGUCCAGGGAGUGGCGAAAGUCACACAAACCGG	0.0102
GUGCCUUGCGCCGGGAAACCACGCAAGGGAUGGUGUCAAAUUCGGCGAAACCUAAGCGCCCGCCCGGGCGUAUGGCAACGCUGAGCCAAGCUUCGGCGCCUGCGCCGAUGCAGGUGUAGCGACUAGACGGCACCCACCUAAGGCGAACGAUAUGGUGAAGGCAUAGUCUAGGGAGGGGCGAAAGUCACACAAACCGG	0.00639
GUGCCUUGCGCCGGGAAACCACGCAAGGGAUGGUGUCAAAUUCGGCGAAACCUAAGCGCCCGCCCGGGCGUAUGGCAACGCUGAGCCAAGCUUCGGCGCCUGCGCCGAUGCAGGUGUAGCGACUAGACGGCACCCACCUAAGGCGAACGAUAUGGUGAAGGCAUAGUCUAGGGAGCGGCGAAAGUCACACAAACCGG	0.0172
GUGCCUUGCGCCGGGAAACCACGCAAGGGAUGGUGUCAAAUUCGGCGAAACCUAAGCGCCCGCCCGGGCGUAUGGCAACGCUGAGCCAAGCUUCGGCGCCUGCGCCGAUGCAGGUGUAGCGACUAGACGGCACCCACCUAAGGCGAACGAUAUGGUGAAGGCAUAGUCUAGGGAGAGGCGAAAGUCACACAAACCGG	0.0176
